Assay [1] has as its target T1, ATASE (Gln Phosphoribosyl Pyrophospate Amidotransferase 1) (Arabidopsis thaliana).
T1 sequence (Q9SI61 59-566, looked up): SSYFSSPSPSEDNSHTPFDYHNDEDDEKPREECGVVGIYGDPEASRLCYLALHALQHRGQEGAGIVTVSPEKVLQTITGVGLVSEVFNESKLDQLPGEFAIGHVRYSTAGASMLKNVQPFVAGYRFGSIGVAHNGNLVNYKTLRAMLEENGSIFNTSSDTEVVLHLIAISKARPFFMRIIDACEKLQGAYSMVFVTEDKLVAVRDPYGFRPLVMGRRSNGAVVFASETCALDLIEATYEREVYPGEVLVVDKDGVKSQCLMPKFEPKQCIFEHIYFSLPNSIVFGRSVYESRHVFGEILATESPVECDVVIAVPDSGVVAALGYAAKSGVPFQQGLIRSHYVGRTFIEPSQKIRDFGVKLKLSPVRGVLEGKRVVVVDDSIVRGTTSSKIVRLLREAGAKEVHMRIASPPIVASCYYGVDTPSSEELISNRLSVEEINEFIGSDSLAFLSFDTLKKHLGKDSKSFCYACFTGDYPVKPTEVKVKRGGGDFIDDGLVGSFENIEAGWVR
The assay is described as follows: TAP-MS, N-terminal GS tag.

In assay [2] the target is expressed protein, similar to DAG protein (AT3G15000) (Arabidopsis thaliana). The assay is described as follows: TAP-MS, N-terminal GS tag.
The target of assay [3] is chromatin remodeling protein (SYD) (Arabidopsis thaliana). The assay is described as follows: TAP-MS, N-terminal GS tag.
In assay [4] the target is T2, actin-related protein 7 (ARP7) (Arabidopsis thaliana).
T2 sequence (Q8L4Y5 1-363, looked up): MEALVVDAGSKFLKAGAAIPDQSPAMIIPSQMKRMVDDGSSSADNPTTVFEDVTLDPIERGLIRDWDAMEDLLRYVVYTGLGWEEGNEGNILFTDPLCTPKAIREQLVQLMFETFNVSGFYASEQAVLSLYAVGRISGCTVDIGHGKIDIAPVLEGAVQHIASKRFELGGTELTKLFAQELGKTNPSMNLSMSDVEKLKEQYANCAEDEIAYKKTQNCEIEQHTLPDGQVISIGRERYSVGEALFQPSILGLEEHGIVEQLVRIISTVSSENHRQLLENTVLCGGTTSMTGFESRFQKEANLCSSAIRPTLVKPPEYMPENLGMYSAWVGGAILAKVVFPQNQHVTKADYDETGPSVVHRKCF
Kind of assay: TAP-MS, N-terminal GS tag.

Assay [5] has as its target acyl-(acyl-carrier-protein) desaturase (AT1G43800) (Arabidopsis thaliana). The assay is described as follows: TAP-MS, N-terminal GS tag.
Assay [6] concerns the target PTAC17 (PLASTID …ONALLY ACTIVE17) (Arabidopsis thaliana). The assay is described as follows: TAP-MS, N-terminal GS tag.
Assay [7] concerns the target T3, GAD (Glutamate decarboxylase); calmodulin binding (Arabidopsis thaliana).
T3 sequence (Q42521 1-502, looked up): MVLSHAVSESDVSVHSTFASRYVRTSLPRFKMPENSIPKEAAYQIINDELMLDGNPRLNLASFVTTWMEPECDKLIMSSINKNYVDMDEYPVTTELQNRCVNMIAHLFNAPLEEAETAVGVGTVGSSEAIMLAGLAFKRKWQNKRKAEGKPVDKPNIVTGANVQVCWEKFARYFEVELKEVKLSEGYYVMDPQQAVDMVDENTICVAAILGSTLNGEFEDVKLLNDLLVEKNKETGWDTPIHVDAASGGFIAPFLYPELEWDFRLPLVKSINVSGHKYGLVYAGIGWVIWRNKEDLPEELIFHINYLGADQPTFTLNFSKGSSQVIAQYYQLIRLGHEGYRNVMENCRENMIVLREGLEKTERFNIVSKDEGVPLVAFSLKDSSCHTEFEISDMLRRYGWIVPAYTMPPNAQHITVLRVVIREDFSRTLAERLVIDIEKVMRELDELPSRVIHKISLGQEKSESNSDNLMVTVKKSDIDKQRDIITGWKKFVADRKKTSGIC
The assay is described as follows: TAP-MS, N-terminal GS tag.

For assay [8], the target named is importin alpha-2 (IMPA2) (Arabidopsis thaliana). Kind of assay: TAP-MS, N-terminal GS tag.
In assay [9] the target is SNF2 protein (BRM) (Arabidopsis thaliana). Kind of assay: TAP-MS, N-terminal GS tag.
The target in assay [10] is G2484-1, agenet domain-containing protein (Arabidopsis thaliana). Kind of assay: TAP-MS, N-terminal GS tag.
Assay [11] deals with SWIB complex BAF60b domain-containing protein (Swp73B) (Arabidopsis thaliana). Kind of assay: TAP-MS, C-terminal GS tag.
In assay [12] the target is DNA-binding bromodomain-containing protein, similar to At1g20670 (AT5G55040) (Arabidopsis thaliana). The assay is described as follows: TAP-MS, C-terminal GS tag.
Assay [13] addresses T4, SWIRM domain-containing protein (SWI3C) (Arabidopsis thaliana).
T4 sequence (Q9XI07 1-807, looked up): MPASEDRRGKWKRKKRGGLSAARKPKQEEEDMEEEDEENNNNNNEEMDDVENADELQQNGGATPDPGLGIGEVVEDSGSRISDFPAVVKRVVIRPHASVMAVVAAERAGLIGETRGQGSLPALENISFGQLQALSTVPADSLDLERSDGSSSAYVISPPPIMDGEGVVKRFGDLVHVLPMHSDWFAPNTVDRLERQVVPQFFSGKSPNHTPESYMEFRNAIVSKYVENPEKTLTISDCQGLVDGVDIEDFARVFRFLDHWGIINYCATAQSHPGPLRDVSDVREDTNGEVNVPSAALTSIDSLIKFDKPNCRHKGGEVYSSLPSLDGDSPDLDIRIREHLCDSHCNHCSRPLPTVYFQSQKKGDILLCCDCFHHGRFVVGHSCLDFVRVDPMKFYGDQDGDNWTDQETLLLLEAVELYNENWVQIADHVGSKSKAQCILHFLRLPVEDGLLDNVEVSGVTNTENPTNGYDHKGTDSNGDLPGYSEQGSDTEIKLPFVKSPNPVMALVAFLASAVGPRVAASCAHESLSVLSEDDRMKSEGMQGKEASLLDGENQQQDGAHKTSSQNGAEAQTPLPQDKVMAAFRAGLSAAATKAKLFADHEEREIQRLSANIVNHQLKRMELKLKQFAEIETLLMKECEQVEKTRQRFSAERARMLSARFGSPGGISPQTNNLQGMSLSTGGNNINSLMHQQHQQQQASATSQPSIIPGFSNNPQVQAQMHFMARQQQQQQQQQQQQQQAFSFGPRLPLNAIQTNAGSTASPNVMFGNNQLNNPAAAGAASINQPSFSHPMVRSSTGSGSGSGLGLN
The assay is described as follows: TAP-MS, C-terminal GS tag.

Assay [14] addresses T2, actin-related protein 7 (ARP7) (Arabidopsis thaliana). The assay is described as follows: TAP-MS, C-terminal GS tag.
Assay [15] deals with DNA-binding bromodomain-containing protein (AT1G20670) (Arabidopsis thaliana). Kind of assay: TAP-MS, C-terminal GS tag.
Assay [16] deals with Swp73A (Arabidopsis thaliana). Kind of assay: TAP-MS, C-terminal GS tag.
Assay [17] deals with RD21 (RESPONSIVE TO …ON 21) (Arabidopsis thaliana). The assay is described as follows: TAP-MS, C-terminal GS tag.
Assay [18] deals with unknown protein, similar to At5g17510 (AT3G03460) (Arabidopsis thaliana). Kind of assay: TAP-MS, C-terminal GS tag.
In assay [19] the target is expressed protein, similar to At3g03460 (AT5G17510) (Arabidopsis thaliana). The assay is described as follows: TAP-MS, C-terminal GS tag.
In assay [20] the target is SNF2 protein (BRM) (Arabidopsis thaliana). Kind of assay: TAP-MS, C-terminal GS tag.
Assay [21] has as its target DNA-binding bromodomain-containing protein, similar to At1g20670 (AT1G76380) (Arabidopsis thaliana). The assay is described as follows: TAP-MS, C-terminal GS tag.
The target of assay [22] is expressed protein, similar to At4g22320 (AT5G55210) (Arabidopsis thaliana). The assay is described as follows: TAP-MS, C-terminal GS tag.
For assay [23], the target named is T5, SE (SERRATE) (Arabidopsis thaliana).
T5 sequence (Q9ZVD0 1-720, looked up): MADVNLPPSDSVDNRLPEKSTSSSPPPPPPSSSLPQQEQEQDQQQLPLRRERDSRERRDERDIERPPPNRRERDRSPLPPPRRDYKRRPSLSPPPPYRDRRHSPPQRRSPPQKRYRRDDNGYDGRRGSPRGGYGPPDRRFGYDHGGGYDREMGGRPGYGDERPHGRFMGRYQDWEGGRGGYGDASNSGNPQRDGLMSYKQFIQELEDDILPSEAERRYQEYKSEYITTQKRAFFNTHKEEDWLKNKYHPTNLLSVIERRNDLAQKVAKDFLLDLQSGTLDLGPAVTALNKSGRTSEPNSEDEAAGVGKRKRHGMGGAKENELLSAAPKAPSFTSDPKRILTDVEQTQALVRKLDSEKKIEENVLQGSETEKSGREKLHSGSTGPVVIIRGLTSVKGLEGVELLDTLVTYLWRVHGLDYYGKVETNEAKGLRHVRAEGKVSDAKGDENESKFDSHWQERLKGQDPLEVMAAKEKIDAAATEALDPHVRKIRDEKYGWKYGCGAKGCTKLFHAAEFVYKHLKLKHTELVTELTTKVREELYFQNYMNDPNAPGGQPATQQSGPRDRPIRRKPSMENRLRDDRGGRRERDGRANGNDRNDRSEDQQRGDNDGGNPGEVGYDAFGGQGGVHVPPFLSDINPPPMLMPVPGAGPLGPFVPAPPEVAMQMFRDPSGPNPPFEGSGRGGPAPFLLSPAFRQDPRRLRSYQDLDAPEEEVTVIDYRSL
The assay is described as follows: TAP-MS, C-terminal GS tag.

B1: GS-AN3 (protein, UniProt Q8L8A5 1-210, looked up)
GRF1-interacting factor 1: MQQHLMQMQPMMAGYYPSNVTSDHIQQYLDENKSLILKIVESQNSGKLSECAENQARLQRNLMYLAAIADSQPQPPSVHSQYGSAGGGMIQGEGGSHYLQQQQATQQQQMTQQSLMAARSSMLYAQQQQQQQPYATLQHQQLHHSQLGMSSSSGGGGSSGLHILQGEAGGFHDFGRGKPEMGSGGGGEGRGGSSGDGGETLYLKSSDDGN
modifications: N-terminal GS tag
As for B1, the N-GS (times co-purified) in [1] came out at 2; in [2] it was 3; in [3] it was 4; in [4] it was 3; in assay [5], 1; in assay [6], 1. In addition, the N-GS (times co-purified) in [7] was 1; in [8], 1; in [9], 2; in assay [10], 2.

B2: ARP4-GS (protein, UniProt Q84M92 1-441, looked up)
Actin-related protein 4: MYGGDEVSAIVVDLGSHTCKAGYAGEDAPKAVFPSVIGAVDGVEAMDVDVDSTKTNSNSEDSKTESEKEKSKRKLYVGSQAMSYRRDHMEVLSPIKDGIVSDWDLVDNIWEHAFKSCLMIDPTEHPMLLAEPPLNTQQQREKAAELMFEKYKVPALFMAKNPVLTSFATGRATSLVVDCGGGSTTISPVHDGYVLQKAVVSSPLGGEFLTDCLLKSLESKGIKIRPRYSFKRKEVRAGEFQVEDVDIPDTTESYKLFCQRMIVGDIKDSICRVPDTPYDDKSYSNIPTTSYELPDGQTLEIGADRFKVPDVMFNPSIVQTIPGMEKYAEMIPSVRGLPHMVMESINKCDVDIRRELYSSILLAGGTSSMQQLKERLEKDLIEESPHSARVKVLASGNTTERRFSVWIGGSILASLGSFQQMWFSKSEYEEHGASYIQRKCP
modifications: C-terminal GS tag
On to B2, for which the C-GS (times co-purified) in assay [11] was determined as 2; in [12] it was 1; in assay [13], 2; in assay [14] it was 2; in assay [15] it was 2; in [16] it was 2. Also, the C-GS (times co-purified) in assay [17] was 2; in assay [18], 1; in [19], 2; in assay [20], 2; in assay [21], 2; in [22] it was 1. This molecule had a C-GS (times co-purified) in [23] of 1.

Source of the values: patent US20120324602A1.
